{
  "source": "paper PMC10696660",
  "molecular_target": "AqpZ (UniProt P60844)",
  "assay": "native MS",
  "data": [
    {"substance": "AqpZ (from UniProt P60844 1-231) (natural protein)", "values": [
      {"measurement": "stoichiometry N", "result": 4}
    ]}
  ]
}
